Reference: PMC11497598

Columns and labels:
Test in all cases: analytical SEC
Settings in all cases: cell culture supernatant of Expi293F cells; parent: est. 72; read off a plot
[1] = molecular target: B/Iowa/06/2017 HA HA1 152W
[2] = molecular target: B/Iowa/06/2017 HA HA1 T211L
[3] = molecular target: B/Iowa/06/2017 HA HA1 T218I
[4] = molecular target: B/Iowa/06/2017 HA HA2 67A
[5] = molecular target: B/Iowa/06/2017 HA HA2 91V
[6] = molecular target: B/Iowa/06/2017 HA HA2 111L
[7] = molecular target: B/Iowa/06/2017 HA HA2 E113N
[8] = molecular target: B/Iowa/06/2017 HA HA2 H22F
[9] = molecular target: B/Iowa/06/2017 HA HA2 H22W
[10] = molecular target: B/Iowa/06/2017 HA HA2 H114F
[11] = molecular target: B/Iowa/06/2017 HA HA2 H114N

wild-type soluble hemagglutinin (HA) of influenza B/Iowa/06/2017 HA1:152W
other: trimer fraction [1]: 81%

wild-type soluble hemagglutinin (HA) of influenza B/Iowa/06/2017 HA1:T211L
other: trimer fraction [2]: 95%

wild-type soluble hemagglutinin (HA) of influenza B/Iowa/06/2017 HA1:T218I
other: trimer fraction [3]: 82%

wild-type soluble hemagglutinin (HA) of influenza B/Iowa/06/2017 HA2:67A
other: trimer fraction [4]: 64%

wild-type soluble hemagglutinin (HA) of influenza B/Iowa/06/2017 HA2:91V
other: trimer fraction [5]: 77%

wild-type soluble hemagglutinin (HA) of influenza B/Iowa/06/2017 HA2:111L
other: trimer fraction [6]: 55%

wild-type soluble hemagglutinin (HA) of influenza B/Iowa/06/2017 HA2:E113N
other: trimer fraction [7]: 96%

wild-type soluble hemagglutinin (HA) of influenza B/Iowa/06/2017 HA2:H22F
other: trimer fraction [8]: 91%

wild-type soluble hemagglutinin (HA) of influenza B/Iowa/06/2017 HA2:H22W
other: trimer fraction [9]: 81%

wild-type soluble hemagglutinin (HA) of influenza B/Iowa/06/2017 HA2:H114F
other: trimer fraction [10]: 75%

wild-type soluble hemagglutinin (HA) of influenza B/Iowa/06/2017 HA2:H114N
other: trimer fraction [11]: 57%
